Read-outs that look alike come from different tables or passages of the source.
Key:
[1] = target: Peltigera membranacea cyanobiont 210A (Pmc) TnsC (Peltigera membranacea cyanobiont 210A); assay: cryo-EM structure
[2] = target: Peltigera membranacea cyanobiont 210A (Pmc) TnsC (Peltigera membranacea cyanobiont 210A); assay: cryo-EM structure; remark: listed apart in the source

stoichiometry N [1]: 7
stoichiometry N [2]: 7
Substance: Peltigera membranacea cyanobiont 210A (Pmc) TnsC (natural protein)

Reference: PMC11915506
